In article PMC8126837 (2021):
Where two headings read alike, the source gives them in different places.

Legend:
[1] = target: T1, SARS-CoV-2 receptor-binding domain (RBD), wild type (SARS-CoV-2, UniProt P0DTC2 331-527); experiment: BLI
[2] = target: T1, SARS-CoV-2 receptor-binding domain …; experiment: BLI; remark: listed apart in the source
[3] = target: T1, SARS-CoV-2 receptor-binding domain …; experiment: BLI; remark: listed apart in the source
[4] = target: T2, SARS-CoV-2 spike (recombinant, used in bio-layer interferometry) (SARS-CoV-2, UniProt P0DTC2); experiment: BLI
SARS-CoV S1 subunit = SARS-CoV S1 subunit (SARS-CoV, UniProt P59594 14-667)
[5] = target: T1, SARS-CoV-2 receptor-binding domain …; experiment: BLI; remark: listed apart in the source
[6] = target: T2, SARS-CoV-2 spike (recombinant, used in …); experiment: BLI; remark: listed apart in the source

Binder	Kd [1]	koff [2]	koff [3]	koff [4]	EC50 (SARS2 S1)	IC50 (SARS2 S1)	EC50 (SARS-CoV S1 subunit)	Kd [5]	Kd [6]
WNb 23 (VHH) VHH: QVQLQESGGGLVQPGGSLRLSCAASGFTFKDYAMAWARQVPGKGLEWVSGIYSDGNTYYADSVKGRFTISRDNAKNTVYLRMNSLKPEDTAVYYCATERHPQGAADFGSWGQGTQVTVSS	9030 pM	0.00245 s⁻¹							
WNb 7 (VHH) VHH: QVQLQESGGGLVQPGGSLRLSCAAPGFTFSSYAMGWFRQVPGKGLEWVSGIYSDGSTYYADSVKGRFTISRDNAKNTVYLQMNSLKPEDTAVYYCAKDRLEGSSWPERDFGSWGQGTQVTVSS	260 pM	3.19e-05 s⁻¹							
WNb 50 (VHH) VHH: QVQLQESGGGLVQPGGSLRLSCAASGFTFSSYAMGWFRQVPGKGLEWVSGIYSDGSTYYADSVKGRFTISRDNAKNTVYLQMNSLKPEDTAVYYCAADRMAGSRWPERDFGSWGQGTQVTVSS	630 pM	0.00013 s⁻¹							
WNbFc 15 (Fc fusion) QVQLQESGGGLVQPGGSLRLSCAASGFTFSSYLMGWFRQVPGKGLEWVSGIYSDGGTYYADSVKGRFTISRDNAKNTVYLQMNSLKPEDTAVYYCATDRMEGSSWPERDFGSWGQGTQVTVSS	250 pM		0.000128 s⁻¹	< 1e-06 s⁻¹	1600 pM	1070 pM	1690 pM	440 pM	< 10 pM
WNb 53 (VHH) VHH: QVQLQESGGGLVQPGGSLRLSCAASGFTFSSYLMGWARQVPGKGLEWVAGIYSDGSTYYADSVKGRFIISRDNAKNTVYLQMNSLKPEDTAVYYCAKDRMEDSTWPERDFGSWGQGTQVTVSS	640 pM	0.00013 s⁻¹							
WNb 15 (VHH) VHH: QVQLQESGGGLVQPGGSLRLSCAASGFTFSSYLMGWFRQVPGKGLEWVSGIYSDGGTYYADSVKGRFTISRDNAKNTVYLQMNSLKPEDTAVYYCATDRMEGSSWPERDFGSWGQGTQVTVSS	140 pM	3.05e-05 s⁻¹							
WNbFc 7 (Fc fusion) QVQLQESGGGLVQPGGSLRLSCAAPGFTFSSYAMGWFRQVPGKGLEWVSGIYSDGSTYYADSVKGRFTISRDNAKNTVYLQMNSLKPEDTAVYYCAKDRLEGSSWPERDFGSWGQGTQVTVSS	350 pM		0.000191 s⁻¹	< 1e-06 s⁻¹	460 pM	450 pM	1120 pM	700 pM	< 10 pM
WNb 10 (VHH) VHH: QVQLQESGGGLVQPGGSLRLSCAASGFTFRRYLMGWARQVPGKGLEWVSGIYSDGSTYYADSVKGRFTISRDNAKNTVYLQMNSLKPEDTAVYYCAKDRMDGSTWPERDFGSWGQGTQVTVSS	680 pM	9.64e-05 s⁻¹							
WNb 41 (VHH) VHH: QVQLQESGGGLVQPGGSLRLSCAVSGFTLDYYAIGWFRQAPGKEREGVSCISSSGGSTNYADSVKGRFTISRDNAKNTVYLQMNGLKPEDTAVYYCAAIAATYYSGSYYYQCPHDGMDYWGKGTQVTVSS	550 pM	0.000104 s⁻¹							
WNb 67 (VHH) VHH: QVQLQESGGGLVQPGGSLRLSCAVSGFTLDYYAIGWFRQAPGKEREGVSCISSSGGSTNYADSVKGRFTISRDNATNTVYLQMNSLKPEDTAVYYCAAIAATYYGGSYYYQCPHYGMDYWGKGTQVTVSS	610 pM	0.000212 s⁻¹							
WNb 2 (VHH) VHH: QVQLQESGGGLVQPGGSLRLSCAVSGFTLDYYAIGWFRQAPGKEREGVSCISSSGGNTKYADSVKGRFTASRDNAKNTFYLQMNSLKPEDTAVYYCAAIAATYYSGSYYFQCPHDGMDYWGKGTQVTVSS	360 pM	7.34e-05 s⁻¹							
WNbFc 2 (Fc fusion) QVQLQESGGGLVQPGGSLRLSCAVSGFTLDYYAIGWFRQAPGKEREGVSCISSSGGNTKYADSVKGRFTASRDNAKNTFYLQMNSLKPEDTAVYYCAAIAATYYSGSYYFQCPHDGMDYWGKGTQVTVSS			0.000158 s⁻¹	< 1e-06 s⁻¹	1170 pM	660 pM		590 pM	< 10 pM
WNb 19 (VHH) VHH: QVQLQESGGGLVQPGGSLRLSCAASGSMFSINVMGWYRQASGKQRELVAGITRDGATNYSDSVKGRFTISGDNAKNTVYLQMNSLKPEDTAVYYCNTNVDSVWGSRIDYFGQGTQVTVSS	460 pM	0.000107 s⁻¹							
WNb 36 (VHH) VHH: QVQLQESGGGLVQPGGSLRLSCAVSGFTLDYYAIGWFRQAPGKEREGVSCISNSGGNTKYADSVKGRFTTSVDNAQNTVYLLMNSLEPEDTAVYYCAAIAATYYSGTYYYQCPHYGMDYWGKGTQVTVSS	430 pM	0.000127 s⁻¹							
WNbFc 36 (Fc fusion) QVQLQESGGGLVQPGGSLRLSCAVSGFTLDYYAIGWFRQAPGKEREGVSCISNSGGNTKYADSVKGRFTTSVDNAQNTVYLLMNSLEPEDTAVYYCAAIAATYYSGTYYYQCPHYGMDYWGKGTQVTVSS	360 pM		0.000202 s⁻¹	< 1e-06 s⁻¹	630 pM	320 pM		610 pM	< 10 pM
